Test results taken from paper PMC4875590, “LATE ELONGATED HYPOCOTYL regulates photoperiodic flowering via the circadian clock in Arabidopsis”.

Molecular target: MBP-CCA1 (Arabidopsis thaliana, UniProt P92973 1-608)
Assay: EMSA; 100 ng protein; 100 ng poly(dI-dC); EMSA: 10 mM Tris-HCl pH 7.6, 50 mM NaCl, 1 mM EDTA, 5 mM DTT, 5% glycerol, 100 ng poly(dI-dC), 30 min, room temperature; 6% native PAGE
Details: protein: recombinant; tags: MBP (N-terminal, pMAL-c2X); label: 32P end label

MBP-CCA1, sequence (P92973 whole entry): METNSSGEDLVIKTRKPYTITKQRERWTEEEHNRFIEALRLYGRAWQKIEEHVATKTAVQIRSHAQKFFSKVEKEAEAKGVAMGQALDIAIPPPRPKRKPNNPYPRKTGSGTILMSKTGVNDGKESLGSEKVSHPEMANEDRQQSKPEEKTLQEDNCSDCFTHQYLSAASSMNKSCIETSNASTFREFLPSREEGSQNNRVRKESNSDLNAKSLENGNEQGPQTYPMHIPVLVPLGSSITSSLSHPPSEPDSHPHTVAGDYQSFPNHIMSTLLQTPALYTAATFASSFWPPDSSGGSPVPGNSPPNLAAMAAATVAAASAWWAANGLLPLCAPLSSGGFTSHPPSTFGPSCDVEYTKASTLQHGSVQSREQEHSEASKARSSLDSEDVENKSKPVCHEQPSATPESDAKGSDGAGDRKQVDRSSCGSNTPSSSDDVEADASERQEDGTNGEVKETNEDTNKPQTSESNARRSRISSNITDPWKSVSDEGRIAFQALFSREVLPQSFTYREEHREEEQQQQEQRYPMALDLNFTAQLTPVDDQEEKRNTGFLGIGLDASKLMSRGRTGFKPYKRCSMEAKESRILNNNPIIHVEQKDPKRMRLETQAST

| Binder | binding result |
| --- | --- |
| FT CBS (dsDNA) DNA 1: GCTTTAGATTTTTAATAG DNA 2: CTATTAAAAATCTAAAGC | binds |
| FT EE (dsDNA) DNA 1: TAATTAAAATATCTGCAAA DNA 2: TTTGCAGATATTTTAATTA | binds |
